Literature values as cited in patent US5223421A, “Identification of methionine Nα-acetyltransferase” (The General Hospital Corporation, priority 1990, dated 1993).

Target: T1, yeast methionine acetyltransferase (M-N^α AT) (Saccharomyces cerevisiae, UniProt Q06504)
T1 construct: a crude yeast homogenate from the aaa1 mutant strain; endogenous in cells; host or cells: Saccharomyces cerevisiae strain T3A-a (aaa1), crude lysate
T1 sequence (Q06504 1-195): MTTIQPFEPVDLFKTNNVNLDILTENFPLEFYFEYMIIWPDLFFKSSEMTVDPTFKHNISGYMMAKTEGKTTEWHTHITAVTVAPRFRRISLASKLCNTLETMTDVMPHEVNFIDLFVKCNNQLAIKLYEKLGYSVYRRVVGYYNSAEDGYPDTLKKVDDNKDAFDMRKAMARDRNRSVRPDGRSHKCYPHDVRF
T1 sequence (Q12387 2-796 partner limits assumed): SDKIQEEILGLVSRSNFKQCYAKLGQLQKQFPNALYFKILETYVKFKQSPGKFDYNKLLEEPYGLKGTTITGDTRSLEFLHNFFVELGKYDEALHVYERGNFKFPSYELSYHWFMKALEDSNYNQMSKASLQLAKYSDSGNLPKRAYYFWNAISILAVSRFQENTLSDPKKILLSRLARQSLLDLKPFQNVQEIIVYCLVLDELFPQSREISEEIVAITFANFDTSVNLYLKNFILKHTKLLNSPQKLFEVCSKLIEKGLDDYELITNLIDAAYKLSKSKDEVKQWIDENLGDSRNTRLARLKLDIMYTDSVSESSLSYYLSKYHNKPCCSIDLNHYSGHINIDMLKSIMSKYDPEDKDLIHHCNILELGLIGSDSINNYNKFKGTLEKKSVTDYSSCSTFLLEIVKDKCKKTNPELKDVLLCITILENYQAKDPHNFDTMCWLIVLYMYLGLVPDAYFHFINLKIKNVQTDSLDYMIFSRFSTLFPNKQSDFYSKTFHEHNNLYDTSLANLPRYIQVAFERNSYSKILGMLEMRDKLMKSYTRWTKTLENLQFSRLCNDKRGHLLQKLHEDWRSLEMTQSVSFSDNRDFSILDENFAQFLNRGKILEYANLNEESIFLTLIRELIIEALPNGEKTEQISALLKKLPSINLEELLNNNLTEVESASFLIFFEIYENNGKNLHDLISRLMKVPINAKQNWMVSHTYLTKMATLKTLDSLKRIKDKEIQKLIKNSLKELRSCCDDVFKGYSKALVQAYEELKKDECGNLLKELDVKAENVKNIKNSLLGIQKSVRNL
Details: Lee et al., J. Biol. Chem. 265:3603-3606 (1990); cited from earlier work

## 24 residue synthetic peptide mimicking the NH2 terminus of yeast actin: 24 residue synthetic peptide mimicking the NH2 terminus of yeast actin (MDSEVAALVIDNGSGMCKAGFAGD; UniProt P60010 1-24, looked up, fragment)
  N^α -acetylation by yeast M-N^α AT: will acetylate
